# The nanobody polyreactivity screen of Harvey et al. (2022)
# Assay: yeast display, Sf9 membrane polyspecificity reagent, FACS + sequencing; frameworks hold sequencing errors
# Summary of the method: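 Genes from sorted yeast were amplified by colony PCR, read by MiSeq 2 × 250 sequencing and filtered on CDR length. These cells carried a synthetic nanobody library in Saccharomyces cerevisiae BJ5465 and were sorted by FACS into low and high (top ~1%) gates on anti-HA and streptavidin fluorescence. Polyreactivity is labelled according to the gate of origin.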
row,Sequence,polyreactivity (PSR sort gate)
1,QVQLVESGGGLVQAGGSLRLSCAASGRTFSNYAIGWYRQAPGKEREFVSDISWSVGSTYYADSVKGRFTISRDNAKNTVYLQMNSLKPEDTALYYCATEVPVGGQRHLFKYYYWGQGTQVTVSS,low polyreactivity
2,QVQLVESGGGLVQAGGSLRLSCAASGRTFSNYAMGWYRQAPGKERELVAAISSGGSTNYADSVKGRFTISRDNAKNTVYLLMNSLKPEDTAVYYCAARQRAYYGPGFDYWGQGTQVTVSS,low polyreactivity
3,QVQLVESGGGLVQAGGSLRLSCAASGRTFSNYVMGWYRQAPAKERELVAAITYSGGSTYYADSVKGRFTISRDNATNTVYLQMNSLKPEDTAVYYCARRWGGRGYYYWGQGTQVTVSS,high polyreactivity
4,QVQLVESGGGLVQAGGSLRLSCAASGRTFSPYAMGWYRQAPGKERDLVAAINGGGGTTYYADSVKGRFTISRDNAKNTVYLQMNSLKPEDTAVYYCAAGYNYTSYADLDYWGQGTQVTVSS,low polyreactivity
5,QVQLVESGGGLVQAGGSLRLSCAASGRTFSPYDMGWSRQAPGKERELVAAISFSDTITYYADSVKGRFTISRDNAKNTVYLQMNSLKPEDTAVYYCAADAGGYYEWELYDYWGQGTQVTVSS,low polyreactivity
6,QVQLVESGGGLVQAGGSLRLSCAASGRTFSPYVMGWYRQAPGKETELVATITGGGGSTYYADSVKGRFTISRDNAKNTVFLQMNSLKPEDTAVYYCARGYRYYVYRMGYWGQGTQVTVSS,high polyreactivity
7,QVQLVESGGGLVQAGGSLRLSCAASGRTFSRNAMGWYRQAPGKERELVAAISRSGGSTYYADSVKGRFTISRDNAKNTVYFQLNSLKPEDTAVYYCKADVYSTYYNYNYWGQGTQVTVSS,high polyreactivity
8,QVQLVESGGGLVQAGGSLRLSCAASGRTFSRYAMGWYRQAPGKEREFVAAISASGGSTYYADSVKGRFTISRDNAKNTVYLQMNSLKPEDTAVYYCAASGYYRYYQYRYDYWGQGTQVTVSS,high polyreactivity
9,QVQLVESGGGLVQAGGSLRLSCAASGRTFSRYAMGWYRQAPGKERELVAAISNSGASTYYADSVKGRFTISRDNAKNTVYLQMNSLKPEDTAVYYCAAERYRLSYQYQEYYYWGQGTQVTVSS,high polyreactivity
10,QVQLVESGGGLVQAGGSLRLSCAASGRTFSSNAMGWYRQDPGKERELVASISFRGGRTYYADSVKGRFTISRDNAKNTVYLQMNSLKPEVTAVYYCVSGTKRTGYGYWGQGTQVTVSS,high polyreactivity
11,QVQLVESGGGLVQAGGSLRLSCAASGRTFSSYAMGWYIQAPGKERELVAAITRGGGSTYYADSVKGRFTISRDNAKNTVYLQMNSLKPEDTAVYYCAADYGRDYRAFNYWGQGTQVTVSS,high polyreactivity
12,QVQLVESGGGLVQAGGSLRLSCAASGRTFSSYAMGWYRQAPGKERELVADINRSGGSTYYADSVKGRFTISRDNAKNTVYLQMNSLKPEDTAVYYCNVRIWPWYGYDYWGQGTQVTVSS,low polyreactivity
13,QVQLVESGGGLVQAGGSLRLSCAASGRTFSSYAMGWYRQAPGKERELVASISKSGGSTSYADSVKGRFTISRDNAKNTVYLQMNSLKPEDTAVYYCNARLDYSTYESSPVTRKRYYWGQGTQVTVSS,low polyreactivity
14,QVQLVESGGGLVQAGGSLRLSCAASGRTFSTNVMGWYRQAPGKERELVAAITTSSSRTYYADSVKGRFTISRDNAKNTVYLQMNSLKPEDTAVYYCAARIHGSWSFDYWGQCTQVTVSS,low polyreactivity
15,QVQLVESGGGLVQAGGSLRLSCAASGRTFSTYAMGGYRQAPGKERELVAVIRRDGSTSYADSVKGRFTISRDNAKNTVYLQMNSLKPEDTAVYYCAVTRRGEYYWGQGTQVTVSS,high polyreactivity
16,QVQLVESGGGLVQAGGSLRLSCAASGRTFSTYAMGWYRQAPGKERELVAAISWRGARTYYADSVKGRFTISRDNAKNTVYLQMNSLKPEDTAVYYCAVRSLVAIRGRAYYYWGQGTQVTVSS,high polyreactivity

row,Sequence,polyreactivity (PSR sort gate)
1,QVQLVESGGGLVQAGGSLRLSCAASGRTFSTYTMGWYRQAPGKERELVAAITSSGGGTYYADSVKGRFTISRDNAKNTVYLQMNSLKPEDTAVSYCGTVRTYRPPVRRGYWGQGTQVTVSS,high polyreactivity
2,QVQLVESGGGLVQAGGSLRLSCAASGRTFSVNAMGWYRPAPGKERELVAAISWSTGSTYYADSVKGRFTISRDNAKNTVYLQMNSLKPEDTAVYYCAKLYEYRRSRYRTYGYWGQGTQVTVSS,high polyreactivity
3,QVQLVESGGGLVQAGGSLRLSCAASGRTFSVNAMGWYRQAPGKERELVAAISWDGGSTYYADSVKGRFTISRDNAKNSVYLQMNSLKPEDTAVYYCNKDLYYAYDYWGQGTQVTVSS,low polyreactivity
4,QVQLVESGGGLVQAGGSLRLSCAASGRTFSVNDMGWYRQAPGKERELVAAISFSGGSTYYADSVKGRFTISRDNAKNSVYLQMNSLKPEDTEVYYCAAEAYASCFYVITGFGIYDYWGQGTQVTVSS,high polyreactivity
5,QVQLVESGGGLVQAGGSLRLSCAASGRTFSVNDMGWYRQAPGKERELVAAISFSGGSTYYADSVKGRFTISRDNAKNTVYLQMNSLKPEDTAVYYCASEAYPSWFYVITGFGIYDYWGQGTQVTVSS,high polyreactivity
6,QVQLVESGGGLVQAGGSLRLSCAASGRTFSVYAMGSSRHAPGKERELVAAITESGGSTYYADSVKGRFTISRDNAKITVYLQMNSLKPEDTAVYYCNAGPYYWYVYWGQGTQVTVSS,low polyreactivity
7,QVQLVESGGGLVQAGGSLRLSCAASGRTFSVYAMGWYRQAPGKERELVARIRSGGSTYYADSVKGRFTISRDNAKNTVYLQMNRLKPEDTAVYYCATQHYGPSSNARGVYRYYYWGHGTQVTVSS,high polyreactivity
8,QVQLVESGGGLVQAGGSLRLSCAASGRTFSVYTMGWYRQAPGKERELVASINWSGGRTYYADSVKGRFTISRDNAKNTVYLQMNSLKPEDTAVYYCAATGWRTLYDYWGQGTQVTVSS,high polyreactivity
9,QVQLVESGGGLVQAGGSLRLSCAASGRTFSWNAMGWYRQAPGKERELVAAINRSGGITFYADSVKGRFTISRDNAKNTVYLHMNSLKPEDTAVYYSAADRSFGHHYWYSGKRYDYWGQGTQVTVSS,low polyreactivity
10,QVQLVESGGGLVQAGGSLRLSCAASGRTFSWYVMGWYRQAPGKERELVAAISWNGGRTYYADSVKGRFTISRDNAKNTVYLQMNSLKPEDTAVYYCNRDYYWRDGAKYIDDYWGQGTQVTVSS,high polyreactivity
11,QVQLVESGGGLVQAGGSLRLSCAASGRTFSYAMGWYRQAPGKERELVAAITSGGSTYYADSVKGRFTISRDNAKNTVYLQMNSLKPEDTAVYYCAKLLGNYARYDYWGHGTQVTVSS,high polyreactivity
12,QVQLVESGGGLVQAGGSLRLSCAASGRTFSYNAMGWYRQAPGKERELVAAISWSDGSTYYADSVKGRFTISRDNAKNTVYLQMNSLKPEDTAVYYCAVESFYRHASLYDNWGQGTQVTVSS,high polyreactivity
13,QVQLVESGGGLVQAGGSLRLSCAASGRTFSYNARGWYRPAPGKEMELVASISSSGTSTSYADSVKGRFTISRDYAKNTVYLQMNSLKPEDTAVYYCATVRYPYWYSGPQNSRGYWGQGSQVTVSS,high polyreactivity
14,QVQLVESGGGLVQAGGSLRLSCAASGRTFSYYALGWYRQAPGKERELVATISYSTGNTNYADSVKGRFTISRDNAKNTVYLQMNSLKPEDTAVYYCAADFSPFVGETYWKYDYWGQGTQVTVSS,low polyreactivity
15,QVQLVESGGGLVQAGGSLRLSCAASGRTFSYYAMGWSRQAPGKERELVAAMSWNGGSTYYADSVKGRFTISRDNAKNTVYFQMNSLKPEDTAVYYGAAAFYYYGDYDYWGQGTQVTVSS,low polyreactivity
